Assay results published in patent US20040038400A1 (TRUSTEES OF DARTMOUTH COLLEGE, published 2004).

Target: T1, WC-1 (Neurospora, UniProt Q01371 1-1167)
T1 construct: Tested either as native protein in Neurospora nuclear extracts or as 'full-length WC-1' made in reticulocyte lysate; also called White Collar-1; WC-1 protein
Assay: EMSA supershift with nuclear extracts; complexes absent with extracts from wc-1 ER45 or wc-2 KO strains
Source text: The presence of WC-1 and WC-2 in the LRE-bound complexes was confirmed by the absence of complexes in binding reactions performed using nuclear protein extracts from wc-1^ER45 (loss-of-function) or wc-2^KO strains (Collett, et al. (2002) Genetics 160:149). […] Because WC-1 and WC-2 are known to complex with FRQ (Denault, et al. (2001) EMBO J. 20:109; Cheng, et al. (2001) EMBO J. 20:101; Merrow, et al. (2001) EMBO J. 20:307), the presence of FRQ in the complexes bound to the LREs was also determined using FRQ antiserum and extracts from an frq^KO strain. FRQ was not in the dark- or light-induced complexes bound to the LREs, nor was FRQ necessary for the formation of the complexes.
Binding reactions using nuclear protein extracts contained 1× binding buffer, […] KCl, 0.1 μg poly(dI-dC), 1 μl probe, 0.5 μl of normal rabbit sera (Pocono Rabbit Farm, Canadensis, Pa.), and 3 μg of nuclear protein extract, which was added last to the binding reactions, in a total volume of 20 μl. In reactions that contained antisera, 1 μl anti-WC-1, 1 μl anti-WC-2, or 0.5 μl anti-FRQ was used. Binding reactions using in vitro translated proteins contained 1× binding buffer, 1 μg poly(dI-dC), 1 μl probe, and 6 μl of the in vitro translation reaction in a total volume of 20 μl. […]

T1 sequence (Q01371 whole entry): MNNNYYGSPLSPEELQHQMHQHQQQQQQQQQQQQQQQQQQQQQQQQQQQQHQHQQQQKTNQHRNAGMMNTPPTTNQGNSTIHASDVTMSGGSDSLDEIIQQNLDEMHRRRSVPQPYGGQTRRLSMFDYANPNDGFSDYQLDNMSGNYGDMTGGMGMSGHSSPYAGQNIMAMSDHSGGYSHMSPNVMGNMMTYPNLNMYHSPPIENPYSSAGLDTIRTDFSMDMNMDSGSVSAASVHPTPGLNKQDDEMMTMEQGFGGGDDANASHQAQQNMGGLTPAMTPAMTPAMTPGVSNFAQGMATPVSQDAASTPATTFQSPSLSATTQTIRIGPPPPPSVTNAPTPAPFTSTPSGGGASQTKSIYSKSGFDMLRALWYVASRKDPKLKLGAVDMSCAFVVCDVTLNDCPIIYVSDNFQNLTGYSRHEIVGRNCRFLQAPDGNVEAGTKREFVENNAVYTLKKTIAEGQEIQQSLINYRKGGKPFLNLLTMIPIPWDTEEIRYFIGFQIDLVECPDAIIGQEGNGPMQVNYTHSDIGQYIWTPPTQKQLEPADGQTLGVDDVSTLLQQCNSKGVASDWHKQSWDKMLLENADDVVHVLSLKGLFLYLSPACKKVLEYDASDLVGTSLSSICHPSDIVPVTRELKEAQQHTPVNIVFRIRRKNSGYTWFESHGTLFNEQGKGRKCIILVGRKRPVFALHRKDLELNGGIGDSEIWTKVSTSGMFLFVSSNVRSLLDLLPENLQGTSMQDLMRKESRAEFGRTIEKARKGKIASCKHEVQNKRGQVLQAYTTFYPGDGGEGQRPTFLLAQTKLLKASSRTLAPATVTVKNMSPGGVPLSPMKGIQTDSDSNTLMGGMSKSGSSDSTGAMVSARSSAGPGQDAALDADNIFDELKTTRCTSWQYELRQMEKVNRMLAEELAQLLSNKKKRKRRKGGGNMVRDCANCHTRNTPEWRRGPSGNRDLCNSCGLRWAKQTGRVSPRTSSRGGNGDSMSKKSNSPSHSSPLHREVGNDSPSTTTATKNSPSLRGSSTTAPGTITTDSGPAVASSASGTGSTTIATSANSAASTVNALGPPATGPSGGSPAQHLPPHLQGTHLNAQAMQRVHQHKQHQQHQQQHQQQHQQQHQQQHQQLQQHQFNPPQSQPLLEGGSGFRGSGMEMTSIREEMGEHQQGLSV

- binding result: binds
B1: WC-2 (other, Neurospora, UniProt P78714 1-530, looked up)
chain: MSHGQPPPGSSMYGFGAMGMGSGMGSGMGSGMGTGMGTGMGTGMSASQMTSDPQDMMSLLDTSVFPGFDGMSMSLDVGDSMSNPFTPVSVPPPLPAGNAGPSHVGVCGGHGAPDQLFSPDDLIATSMSSAGPMIATPTTTTSGPSGGPSSGGGSTLTEFTKRRNWPAKVVEELQDWEHILDANGRIKHVSPSVEPLTGYKPPEIIDLFLRDLIHPDDVGVFTAELNEAIATGSQLRLFYRFRKKDGNWTIFETVGHAHIAAAKFAPNPQNQSPFCQAVFMMARPYPTKNAGLLDSFLEHKIENERLKRRIAELRREEQEEQEESHRTWRMSQEGRSDVTPSDDTATQMGMTPFYIPMNAQADVMMPPPSQPASSLNIALTRENLEGIAGSRPDSIREKMLRYEGNHADTIEMLTGLKYQEGERSHGITTGNASPTLIKGDAGIAIPLDRDPRTGEKKKKIKVAEEYVCTDCGTLDSPEWRKGPSGPKTLCNACGLRWAKKEKKKNANNNNNGGGIGGHNDIHTPMGDHMG
notes: Transcription factor; Tested either as native protein in Neurospora nuclear extracts or as 'full length WC-2' made in reticulocyte lysate; also called White Collar-2; WC-2 protein
